IntAct's records for PubMed 31142615

B1: E3 ubiquitin-protein ligase MARCHF2 (Homo sapiens), Q9P0N8 (parent)
chain: MTTGDCCHLPGSLCDCSGSPAFSKVVEATGLGPPQYVAQVTSRDGRLLSTVIRALDTPSDGPFCRICHEGANGECLLSPCGCTGTLGAVHKSCLEKWLSSSNTSYCELCHTEFAVEKRPRPLTEWLKDPGPRTEKRTLCCDMVCFLFITPLAAISGWLCLRGAQDHLRLHSQLEAVGLIALTIALFTIYVLWTLVSFRYHCQLYSEWRKTNQKVRLKIREADSPEGPQHSPLAAGLLKKVAEETPV

Variants of: B1
Conditions: with ergi3_human ERGIC3, Q9Y282
Sequence of ergi3_human ERGIC3, Q9Y282 (Q9Y282 whole entry): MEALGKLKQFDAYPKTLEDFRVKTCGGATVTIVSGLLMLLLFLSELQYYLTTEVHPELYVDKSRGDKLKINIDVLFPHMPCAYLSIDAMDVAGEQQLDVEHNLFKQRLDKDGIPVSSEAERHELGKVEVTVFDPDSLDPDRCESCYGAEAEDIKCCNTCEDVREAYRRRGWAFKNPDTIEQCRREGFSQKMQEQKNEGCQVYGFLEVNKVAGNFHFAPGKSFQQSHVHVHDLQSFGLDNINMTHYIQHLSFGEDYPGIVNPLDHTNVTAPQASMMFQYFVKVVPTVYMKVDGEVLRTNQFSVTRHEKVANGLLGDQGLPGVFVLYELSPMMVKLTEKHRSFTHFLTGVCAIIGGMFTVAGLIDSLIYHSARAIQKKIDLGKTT

Q: With C64S;C67S as the variant, how does the “effect of a mutation on the interaction” value read?
A: decreasing interaction strength

Variants of: B1
Conditions: with ergi3_human ERGIC3, Q9Y282
Remark: another data set of the same source

Q: Which “effect of a mutation on the interaction” value does the source give for C64S;C67S here?
A: with no effect

Variants of: B1
Conditions: with ergi3_human ERGIC3, Q9Y282
Remark: another data set of the same source

Q: C64S;C67S was tested. Which “effect of a mutation on the interaction” value did it give?
A: causing an interaction
